The target of experiment [1] is T1, HLA-DR7 (DRB1*0701) (human).
T1 chain 1: not shown
T1 chain 2: not shown

Another experiment addresses HLA-A*1101 (human). The following applies: for binding affinity ratio (relative to standard peptide): scale: ratio.
In experiment [2] the target is HLA-A*1101 (purified HLA class I molecule) (human). As to the kind of experiment: competition with a 125I-labelled probe peptide for purified HLA-A*1101.
The target in experiment [3] is HLA-DR2w2β2 (DRB5*0101) (human).
In experiment [4] the target is HLA-DR5w11 (DRB1*1101) (human).

B1: … (EXP position 92, 9 amino acids) (peptide)
peptide: LLGGVGLVL
modifications: not checked
B1: the binding affinity ratio (IC50 of standard peptide / IC50 of test peptide) with HLA-A*0201 (Human) is 0.0038.

B2: … (Pf SSP2 12, 9-mer A02 supermotif peptide) (peptide)
peptide: IVFLIFFDL
modifications: not checked
As for B2, the binding affinity ratio (IC50 of standard peptide / IC50 of test peptide) in the experiment with HLA-A*0201 (Human) amounted to 0.0024.

B3: … (Pf SSP2 15) (peptide)
peptide: LIFFDLFLVNGRDVQ
modifications: not checked
For B3, the binding affinity ratio (IC50 of standard peptide / IC50 of test peptide) in experiment [1] was found to be 0.047.

B4: … (Pf SSP2 165) (peptide)
peptide: PDSIQDSLK
modifications: not checked
As for B4, the binding affinity ratio (IC50 of standard peptide / IC50 of test peptide) with HLA-A*1101 (human) was determined as 0.0002.

B5: … (Pf SSP2 507, 10-mer) (peptide)
peptide: GLALLACAGL
modifications: not checked
On to B5, for which, in the experiment with HLA-A*0201 (Human), the binding affinity ratio (IC50 of standard peptide / IC50 of test peptide) was found to be 0.017.

B6: … (Pf SSP2 203, 9-mer) (peptide)
peptide: VGCHPSDGK
modifications: not checked
As to B6, the binding affinity ratio (IC50 of standard peptide / IC50 of test peptide) in experiment [2] was 0.0003.

B7: … (Pf SSP2 120, 9-mer) (peptide)
peptide: SLLSTNLPY
modifications: not checked
Turning to B7, the binding affinity ratio (IC50 of standard peptide / IC50 of test peptide) in experiment [2] was determined as 0.0046.

B8: … (Pf SSP2 58, 10-mer) (peptide)
peptide: SIRRHNWVNH
modifications: not checked
On to B8, for which the binding affinity ratio (IC50 of standard peptide / IC50 of test peptide) in experiment [2] is 0.0002.

B9: … (Pf SSP2 436, 10-mer) (peptide)
peptide: QSQDNNGNRH
modifications: not checked
On to B9, for which the binding affinity ratio (IC50 of standard peptide / IC50 of test peptide) in experiment [2] stood at 0.0002.

B10: … (Pf SSP2 215, 10-mer) (peptide)
peptide: YADSAWENVK
modifications: not checked
Regarding B10, the binding affinity ratio (IC50 of standard peptide / IC50 of test peptide) in experiment [2] is 0.0002.

B11: … (Pf SSP2 15, 9-mer A02 supermotif peptide) (peptide)
peptide: LIFFDLFLV
modifications: not checked
Turning to B11, in the experiment with HLA-A*0201 (Human), the binding affinity ratio (IC50 of standard peptide / IC50 of test peptide) is 0.089.

B12: SSP2 11 … (peptide)
peptide: VIVFLIFFDL
modifications: not checked
As to B12, the binding affinity ratio (IC50 of standard peptide / IC50 of test peptide) with HLA-A*0201 (Human) is 0.0038.

B13: … (Pf SSP2 192) (peptide)
peptide: QGINVAFNR
modifications: not checked
B13: the binding affinity ratio (IC50 of standard peptide / IC50 of test peptide) with HLA-A*1101 (human) is 0.078.

B14: … (peptide)
peptide: MKILSVFFLALFFII
modifications: not checked
On to B14, for which the binding affinity ratio (IC50 of standard peptide / IC50 of test peptide) in experiment [3] was -0.0021; in experiment [4], -0.001.

B15: Pf EXP peptide … (position 51) (peptide)
peptide: HDLISDMIKK
modifications: not checked
B15: the binding affinity ratio (relative to standard peptide) in the experiment with HLA-A*1101 (human) came out at 0.0002.

B16: SSP2 218 … (peptide)
peptide: SAWENVKNV
modifications: not checked
Regarding B16, the binding affinity ratio (IC50 of standard peptide / IC50 of test peptide) with HLA-A*0201 (Human) worked out at 0.0019.

B17: Pf EXP peptide … (position 51) (peptide)
peptide: HDLISDMIK
modifications: not checked
Consider B17, for which the binding affinity ratio (relative to standard peptide) with HLA-A*1101 (human) worked out at 0.0002.

B18: … (Pf SSP2 280) (peptide)
peptide: QCEEERCPPK
modifications: not checked
In the case of B18, the binding affinity ratio (IC50 of standard peptide / IC50 of test peptide) with HLA-A*1101 (human) turned out to be 0.0002.

B19: Pf EXP peptide … (position 27) (peptide)
peptide: KGTGSGVSSK
modifications: not checked
As to B19, the binding affinity ratio (relative to standard peptide) with HLA-A*1101 (human) was 0.0009.

B20: … (Pf SSP2 250, 10-mer) (peptide)
peptide: WSPCSVTCGK
modifications: not checked
Take B20: the binding affinity ratio (IC50 of standard peptide / IC50 of test peptide) in experiment [2] came out at 0.0002.

B21: … (Pf SSP2 436) (peptide)
peptide: QSQDNNGNR
modifications: not checked
As for B21, in the experiment with HLA-A*1101 (human), the binding affinity ratio (IC50 of standard peptide / IC50 of test peptide) came out at 0.0002.

B22: … (Pf SSP2 7) (peptide)
peptide: VKYLVIVFLIFFDLF
modifications: not checked
Take B22: the binding affinity ratio (IC50 of standard peptide / IC50 of test peptide) in experiment [1] stood at 0.001.

B23: … (Pf SSP2 51, 9-mer A02 supermotif peptide) (peptide)
peptide: LLMDCSGSI
modifications: not checked
On to B23, for which, in the experiment with HLA-A*0201 (Human), the binding affinity ratio (IC50 of standard peptide / IC50 of test peptide) came out at 0.046.

B24: … (Pf SSP2 3, 9-mer) (peptide)
peptide: HLGNVKYLV
modifications: not checked
For B24, the binding affinity ratio (IC50 of standard peptide / IC50 of test peptide) with HLA-A*0201 (Human) is 0.0017.

B25: … (Pf SSP2 521, 9-mer) (peptide)
peptide: VVPGAATPY
modifications: not checked
Consider B25, for which the binding affinity ratio (IC50 of standard peptide / IC50 of test peptide) in experiment [2] worked out at 0.0002.

B26: … (Pf SSP2 503, 9-mer) (peptide)
peptide: GIAGGLALL
modifications: not checked
With B26, the binding affinity ratio (IC50 of standard peptide / IC50 of test peptide) with HLA-A*0201 (Human) was determined as 0.0022.

B27: Pf EXP peptide … (position 32) (peptide)
peptide: GVSSKKKNK
modifications: not checked
As to B27, in the experiment with HLA-A*1101 (human), the binding affinity ratio (relative to standard peptide) was 0.0002.

B28: … (Pf SSP2 169) (peptide)
peptide: QDSLKESRK
modifications: not checked
Turning to B28, the binding affinity ratio (IC50 of standard peptide / IC50 of test peptide) with HLA-A*1101 (human) amounted to 0.0002.

B29: SSP2 226 … (peptide)
peptide: VIGPFMKAV
modifications: not checked
On to B29, for which the binding affinity ratio (IC50 of standard peptide / IC50 of test peptide) with HLA-A*0201 (Human) stood at 0.0004.

B30: … (peptide)
peptide: AVPLAMKLIQQLNLN
modifications: not checked
B30: the binding affinity ratio (IC50 of standard peptide / IC50 of test peptide) in experiment [3] was -0.0006; in experiment [4], 0.0002.

B31: … (Pf SSP2 262, 9-mer) (peptide)
peptide: RSRKREILH
modifications: not checked
For B31, in experiment [2], the binding affinity ratio (IC50 of standard peptide / IC50 of test peptide) was determined as 0.0002.

B32: … (Pf SSP2 167, 10-mer) (peptide)
peptide: SIQDSLKESR
modifications: not checked
Turning to B32, the binding affinity ratio (IC50 of standard peptide / IC50 of test peptide) in experiment [2] was determined as 0.0009.

B33: Pf EXP peptide … (position 15) (peptide)
peptide: IFNKESLAEK
modifications: not checked
For the molecule B33, the binding affinity ratio (relative to standard peptide) in the experiment with HLA-A*1101 (human) was determined as 0.0003.

B34: … (Pf SSP2 139, 9-mer) (peptide)
peptide: QVRKHLNDR
modifications: not checked
B34: the binding affinity ratio (IC50 of standard peptide / IC50 of test peptide) in experiment [2] came to 0.0002.

B35: … (P. falciparum EXP-1, position 5, 10 amino acids) (peptide)
peptide: SVFFLALFFI
modifications: not checked
Take B35: the binding affinity ratio (IC50 of standard peptide / IC50 of test peptide) with HLA-A*0201 (Human) came out at 0.0017.

B36: SSP2 50 … (peptide)
peptide: YLLMDCSGSI
modifications: not checked
Regarding B36, in the experiment with HLA-A*0201 (Human), the binding affinity ratio (IC50 of standard peptide / IC50 of test peptide) was 0.17.

B37: … (Pf SSP2 448) (peptide)
peptide: NSEDRETRPH
modifications: not checked
B37: in the experiment with HLA-A*1101 (human), the binding affinity ratio (IC50 of standard peptide / IC50 of test peptide) is 0.0002.

B38: … (peptide)
peptide: AGGIAGGLALLACAG
modifications: not checked
Take B38: in experiment [4], the binding affinity ratio (IC50 of standard peptide / IC50 of test peptide) was -0.0002.

B39: … (P. falciparum EXP-1, position 91, 9 amino acids) (peptide)
peptide: VLLGGVGLV
modifications: not checked
Take B39: in the experiment with HLA-A*0201 (Human), the binding affinity ratio (IC50 of standard peptide / IC50 of test peptide) stood at 0.029.

B40: … (Pf SSP2 328) (peptide)
peptide: PSPNPEEGK
modifications: not checked
In the case of B40, the binding affinity ratio (IC50 of standard peptide / IC50 of test peptide) with HLA-A*1101 (human) was found to be 0.0002.

B41: Pf EXP peptide … (position 32) (peptide)
peptide: GVSSKKKNKK
modifications: not checked
B41: in the experiment with HLA-A*1101 (human), the binding affinity ratio (relative to standard peptide) was found to be 0.0002.

The values above are taken from patent US9266930.
